Source: patent US6982170

Key:
[1] = tested on: thrombin resistant mutant FGF-1R136K
[2] = tested on: human wild type FGF-1 (fibroblast growth factor-1)
[3] = biological target: human wild type FGF-1 (fibroblast growth factor-1) (human) (UniProt P05230); experiment: cell-based or functional assay

Q: With thrombin as the substance, how does the “degradation of FGF-1 on Western blot” value [1] read?
A: The value was “FGF-1R136K, even in the absence of heparin, was relatively resistant to thrombin degradation”.

Q: What about the “size of the cleavage band on Western blot” value [1] of the same substance?
A: Its value is “the band detected upon treatment of FGF-1R136K mutant is slightly larger than the degradation band from wild type FGF-1”.

Q: What about the “degradation of FGF-1 on Western blot (bands at 17 kD and 14 kD), no heparin” value [2] of the same substance?
A: Its value is “wild-type FGF-1 was degraded by even the lowest concentration of thrombin used (0.5 U/ml)”.

Q: With thrombin (enzyme) as the substance, how does the BAEC growth (cell number after 3 days) with thrombin-pretreated growth factor [3] read?
A: The BAEC growth (cell number after 3 days) with thrombin-pretreated growth factor was less than 1 U/ml.
